IntAct's records for PubMed 29039417

B1: BBSome complex member BBS4 (Homo sapiens), Q96RK4 (parent)
chain: MAEERVATRTQFPVSTESQKPRQKKAPEFPILEKQNWLIHLHYIRKDYEACKAVIKEQLQETQGLCEYAIYVQALIFRLEGNIQESLELFQTCAVLSPQSADNLKQVARSLFLLGKHKAAIEVYNEAAKLNQKDWEISHNLGVCYIYLKQFNKAQDQLHNALNLNRHDLTYIMLGKIHLLEGDLDKAIEVYKKAVEFSPENTELLTTLGLLYLQLGIYQKAFEHLGNALTYDPTNYKAILAAGSMMQTHGDFDVALTKYRVVACAVPESPPLWNNIGMCFFGKKKYVAAISCLKRANYLAPFDWKILYNLGLVHLTMQQYASAFHFLSAAINFQPKMGELYMLLAVALTNLEDIENAKRAYAEAVHLDKCNPLVNLNYAVLLYNQGEKKNALAQYQEMEKKVSLLKDNSSLEFDSEMVEMAQKLGAALQVGEALVWTKPVKDPKSKHQTTSTSKPASFQQPLGSNQALGQAMSSAAAYRTLPSGAGGTSQFTKPPSLPLEPEPAVESSPTETSEQIREK
partner: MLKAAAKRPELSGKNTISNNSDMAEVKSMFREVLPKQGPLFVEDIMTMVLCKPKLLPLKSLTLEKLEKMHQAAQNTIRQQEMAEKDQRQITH

Variants of: B1
Conditions: with bbip1_human BBIP1, A8MTZ0
MAEERVATRTQFPVSTESQKPRQKKAPEFPILEKQNWLIHLHYIRKDYEACKAVIKEQLQETQGLCEYAIYVQALIFRLEGNIQESLELFQTCAVLSPQSADNLKQVARSLFLLGKHKAAIEVYNEAAKLNQKDWEISHNLGVCYIYLKQFNKAQDQLHNALNLNRHDLTYIMLGKIHLLEGDLDKAIEVYKKAVEFSPENTELLTTLGLLYLQLGIYQKAFEHLGNALTYDPTNYKAILAAGSMMQTHGDFDVALTKYRVVACAVPESPKLWNNIGMCFFGKKKYVAAISCLKRANYLAPFDWKILYNLGLVHLTMQQYASAFHFLSAAINFQPKMGELYMLLAVALTNLEDIENAKRAYAEAVHLDKCNPLVNLNYAVLLYNQGEKKNALAQYQEMEKKVSLLKDNSSLEFDSEMVEMAQKLGAALQVGEALVWTKPVKDPKSKHQTTSTSKPASFQQPLGSNQALGQAMSSAAAYRTLPSGAGGTSQFTKPPSLPLEPEPAVESSPTETSEQIREK [P271K] was tested, and the “effect of a mutation on the interaction” value was “with no effect”.
With MAEERVATRTQFPVSTESQKPRQKKAPEFPILEKQNWLIHLHYIRKDYEACKAVIKEQLQETQGLCEYAIYVQALIFRLEGNIQESLELFQTCAVLSPQSADNLKQVARSLFLLGKHKAAIEVYNEAAKLNQKDWEISHNLGVCYIYLKQFNKAQDQLHNALNLNRHDLTYIMLGKIHLLEGDLDKAIEVYKKAVEFSPENTELLTTLGLLYLQLGIYQKAFEHLGNALTYDPTNYKAILAAGSMMQTHGDFDVALTKYRVVACAVPESPELWNNIGMCFFGKKKYVAAISCLKRANYLAPFDWKILYNLGLVHLTMQQYASAFHFLSAAINFQPKMGELYMLLAVALTNLEDIENAKRAYAEAVHLDKCNPLVNLNYAVLLYNQGEKKNALAQYQEMEKKVSLLKDNSSLEFDSEMVEMAQKLGAALQVGEALVWTKPVKDPKSKHQTTSTSKPASFQQPLGSNQALGQAMSSAAAYRTLPSGAGGTSQFTKPPSLPLEPEPAVESSPTETSEQIREK [P271E] the “effect of a mutation on the interaction” value was “with no effect”.
For MAEERVATRTQFPVSTESQKPRQKKAPEFPILEKQNWLIHLHYIRKDYEACKAVIKEQLQETQGLCEYAIYVQALIFRLEGNIQESLELFQTCAVLSPQSADNLKQVARSLFLLGKHKAAIEVYNEAAKLNQKDWEISHNLGVCYIYLKQFNKAQDQLHNALNLNRHDLTYIMLGKIHLLEGDLDKAIEVYKKAVEFSPENTELLTTLGLLYLQLGIYQKAFEHLGNALTYDPTNYKAILAAGSMMQTHGDFDVALTKYRVVACAVPESPPEWNNIGMCFFGKKKYVAAISCLKRANYLAPFDWKILYNLGLVHLTMQQYASAFHFLSAAINFQPKMGELYMLLAVALTNLEDIENAKRAYAEAVHLDKCNPLVNLNYAVLLYNQGEKKNALAQYQEMEKKVSLLKDNSSLEFDSEMVEMAQKLGAALQVGEALVWTKPVKDPKSKHQTTSTSKPASFQQPLGSNQALGQAMSSAAAYRTLPSGAGGTSQFTKPPSLPLEPEPAVESSPTETSEQIREK [L272E], the “effect of a mutation on the interaction” value was “with no effect”.
In the case of MAEERVATRTQFPVSTESQKPRQKKAPEFPILEKQNWLIHLHYIRKDYEACKAVIKEQLQETQGLCEYAIYVQALIFRLEGNIQESLELFQTCAVLSPQSADNLKQVARSLFLLGKHKAAIEVYNEAAKLNQKDWEISHNLGVCYIYLKQFNKAQDQLHNALNLNRHDLTYIMLGKIHLLEGDLDKAIEVYKKAVEFSPENTELLTTLGLLYLQLGIYQKAFEHLGNALTYDPTNYKAILAAGSMMQTHGDFDVALTKYRVVACAVPESPPAWNNIGMCFFGKKKYVAAISCLKRANYLAPFDWKILYNLGLVHLTMQQYASAFHFLSAAINFQPKMGELYMLLAVALTNLEDIENAKRAYAEAVHLDKCNPLVNLNYAVLLYNQGEKKNALAQYQEMEKKVSLLKDNSSLEFDSEMVEMAQKLGAALQVGEALVWTKPVKDPKSKHQTTSTSKPASFQQPLGSNQALGQAMSSAAAYRTLPSGAGGTSQFTKPPSLPLEPEPAVESSPTETSEQIREK [L272A], the “effect of a mutation on the interaction” value is reported as “with no effect”.
With MAEERVATRTQFPVSTESQKPRQKKAPEFPILEKQNWLIHLHYIRKDYEACKAVIKEQLQETQGLCEYAIYVQALIFRLEGNIQESLELFQTCAVLSPQSADNLKQVARSLFLLGKHKAAIEVYNEAAKLNQKDWEISHNLGVCYIYLKQFNKAQDQLHNALNLNRHDLTYIMLGKIHLLEGDLDKAIEVYKKAVEFSPENTELLTTLGLLYLQLGIYQKAFEHLGNALTYDPTNYKAILAAGSMMQTHGDFDVALTKYRVVACAVPESPPKWNNIGMCFFGKKKYVAAISCLKRANYLAPFDWKILYNLGLVHLTMQQYASAFHFLSAAINFQPKMGELYMLLAVALTNLEDIENAKRAYAEAVHLDKCNPLVNLNYAVLLYNQGEKKNALAQYQEMEKKVSLLKDNSSLEFDSEMVEMAQKLGAALQVGEALVWTKPVKDPKSKHQTTSTSKPASFQQPLGSNQALGQAMSSAAAYRTLPSGAGGTSQFTKPPSLPLEPEPAVESSPTETSEQIREK [L272K] the “effect of a mutation on the interaction” value was “with no effect”.
With MAEERVATRTQFPVSTESQKPRQKKAPEFPILEKQNWLIHLHYIRKDYEACKAVIKEQLQETQGLCEYAIYVQALIFRLEGNIQESLELFQTCAVLSPQSADNLKQVARSLFLLGKHKAAIEVYNEAAKLNQKDWEISHNLGVCYIYLKQFNKAQDQLHNALNLNRHDLTYIMLGKIHLLEGDLDKAIEVYKKAVEFSPENTELLTTLGLLYLQLGIYQKAFEHLGNALTYDPTNYKAILAAGSMMQTHGDFDVALTKYRVVACAVPEKPPLWNNIGMCFFGKKKYVAAISCLKRANYLAPFDWKILYNLGLVHLTMQQYASAFHFLSAAINFQPKMGELYMLLAVALTNLEDIENAKRAYAEAVHLDKCNPLVNLNYAVLLYNQGEKKNALAQYQEMEKKVSLLKDNSSLEFDSEMVEMAQKLGAALQVGEALVWTKPVKDPKSKHQTTSTSKPASFQQPLGSNQALGQAMSSAAAYRTLPSGAGGTSQFTKPPSLPLEPEPAVESSPTETSEQIREK [S269K] the “effect of a mutation on the interaction” value was “with no effect”.
